Assay results reported in PMC1847943 (Molecular Systems Biology, 2007).

B1: KaiA (natural protein, Synechococcus elongatus PCC 7942, UniProt Q79PF6 1-284, looked up)
chain: MLSQIAICIWVESTAILQDCQRALSADRYQLQVCESGEMLLEYAQTHRDQIDCLILVAANPSFRAVVQQLCFEGVVVPAIVVGDRDSEDPDEPAKEQLYHSAELHLGIHQLEQLPYQVDAALAEFLRLAPVETMADHIMLMGANHDPELSSQQRDLAQRLQERLGYLGVYYKRDPDRFLRNLPAYESQKLHQAMQTSYREIVLSYFSPNSNLNQSIDNFVNMAFFADVPVTKVVEIHMELMDEFAKKLRVEGRSEDILLDYRLTLIDVIAHLCEMYRRSIPRET
B2: KaiC (natural protein, Synechococcus elongatus PCC 7942, UniProt Q79PF4 1-519, looked up)
chain: MTSAEMTSPNNNSEHQAIAKMRTMIEGFDDISHGGLPIGRSTLVSGTSGTGKTLFSIQFLYNGIIEFDEPGVFVTFEETPQDIIKNARSFGWDLAKLVDEGKLFILDASPDPEGQEVVGGFDLSALIERINYAIQKYRARRVSIDSVTSVFQQYDASSVVRRELFRLVARLKQIGATTVMTTERIEEYGPIARYGVEEFVSDNVVILRNVLEGERRRRTLEILKLRGTSHMKGEYPFTITDHGINIFPLGAMRLTQRSSNVRVSSGVVRLDEMCGGGFFKDSIILATGATGTGKTLLVSRFVENACANKERAILFAYEESRAQLLRNAYSWGMDFEEMERQNLLKIVCAYPESAGLEDHLQIIKSEINDFKPARIAIDSLSALARGVSNNAFRQFVIGVTGYAKQEEITGLFTNTSDQFMGAHSITDSHISTITDTIILLQYVEIRGEMSRAINVFKMRGSWHDKAIREFMISDKGPDIKDSFRNFERIISGSPTRITVDEKSELSRIVRGVQEKGPES
modifications: phosphorylation level changes over the incubation with KaiA, KaiB and ATP (autophosphorylation)
B3: KaiB (natural protein, Synechococcus elongatus PCC 7942, UniProt Q79PF5 1-102, looked up)
chain: MSPRKTYILKLYVAGNTPNSVRALKTLKNILEVEFQGVYALKVIDVLKNPQLAEEDKILATPTLAKVLPLPVRRIIGDLSDREKVLIGLDLLYGELQDSDDF

Target: the molecule itself
Assay: native gel or EMSA

Row | Protein | stoichiometry N
1 | B1 | 2
2 | B2 | 6
3 | B3 | 4
